This is an account of results in patent publication EP4663199A1.

Chain of bispecific binding molecule comprising a first specific binding molecule (comprising SEQ ID NO:265 a) (chain, as listed by the source, chain 1 of 3): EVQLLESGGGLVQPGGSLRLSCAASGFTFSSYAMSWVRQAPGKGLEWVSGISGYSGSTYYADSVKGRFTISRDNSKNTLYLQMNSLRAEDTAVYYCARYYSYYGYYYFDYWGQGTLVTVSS
Chain of bispecific binding molecule comprising a first specific binding molecule (comprising SEQ ID NO:265 a) (chain, as listed by the source, chain 2 of 3): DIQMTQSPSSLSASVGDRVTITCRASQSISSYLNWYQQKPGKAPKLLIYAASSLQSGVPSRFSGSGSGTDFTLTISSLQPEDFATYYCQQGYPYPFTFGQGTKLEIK
Chain of bispecific binding molecule comprising a first specific binding molecule (comprising SEQ ID NO:265 a) (chain, as listed by the source, chain 3 of 3): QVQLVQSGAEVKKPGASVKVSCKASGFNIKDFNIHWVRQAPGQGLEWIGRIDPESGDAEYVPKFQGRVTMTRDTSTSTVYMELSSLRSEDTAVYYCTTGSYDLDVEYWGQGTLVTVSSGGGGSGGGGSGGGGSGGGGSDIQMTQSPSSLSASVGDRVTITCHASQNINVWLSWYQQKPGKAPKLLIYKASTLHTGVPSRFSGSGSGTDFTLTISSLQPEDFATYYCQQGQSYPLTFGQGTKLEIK

The test addresses bispecific binding molecule comprising a first specific binding molecule (comprising SEQ ID NO:265 a).
As to FIGITELHK (modifications not checked) [tag moiety … (SEQ ID NO:4)], the Kd turned out to be 0.015 nM. FIGITELLK (modifications not checked) [tag moiety … (SEQ ID NO:3)] showed a Kd of 0.063 nM.

FIGITELHKGGSAVGALKVPRNQDWLGVPRQL (modifications not checked) [peptide SEQ ID NO:239 (tag moiety …, GGS spacer, cargo peptide)] registered a Kd of 0.063 nM. As for FIGITELLKGGSAVGALKVPRNQDWLGVPRQL (modifications not checked) [peptide SEQ ID NO:238 (tag moiety …, GGS spacer, cargo peptide)], the figure is 0.171 nM; as for FIGITELLKGGSSSAESLKISQAVHAAHAEINEAGREVVGSAE (modifications not checked) [peptide SEQ ID NO:244 (tag moiety …, GGS spacer, cargo peptide)], 0.019 nM; as for FIGITELHKGGSSSAESLKISQAVHAAHAEINEAGREVVGSAE (modifications not checked) [peptide SEQ ID NO:245 (tag moiety …, GGS spacer, cargo peptide)], 0.0054 nM. The same measure for FIGITELLKSSAESLKISQAVHAAHAEINEAGREVVGSAE (modifications not checked) [peptide SEQ ID NO:241 (tag moiety …, no spacer, cargo peptide)]: 0.013 nM. In turn, FIGITELHKSSAESLKISQAVHAAHAEINEAGREVVGSAE (modifications not checked) [peptide SEQ ID NO:242 (tag moiety …, no spacer, cargo peptide)] displayed a Kd of 0.019 nM.
